For the assay, the target named is human TIGIT-Fc (human) (UniProt Q495A1). In words: CD155 competition ELISA, single point. In general terms: ELISA stands for enzyme-linked immunosorbent assay.
human TIGIT-Fc (human), sequence (Q495A1 22-141 limits assumed): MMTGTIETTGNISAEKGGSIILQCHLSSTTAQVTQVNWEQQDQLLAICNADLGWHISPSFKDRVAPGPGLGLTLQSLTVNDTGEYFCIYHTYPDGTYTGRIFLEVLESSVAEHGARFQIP

B1: TIGIT-SC153 (Fc fusion)
VHH: EVQLVESGGGLVQPGGSLRLSCAASGNTFSGGFMGWFRQAPGKEREWVASVLRGGYTWYADSVKGRFTISADNSKNTAYLQMNSLKPEDTAVYYCARAGGCSGTSCYDGWFDPWGQGTLVTVSS
On to B1, for which the OD (450 nm) was 0.8 OD.

The values are drawn from patent publication US20260184782A1.
